The target in experiment [1] is T1, wild type, full length murine TNFR2 (on cells) (mouse, UniProt P25119 23-474).
T1 construct: whole, on cells; also called mTNFR2; mouse TNFR2
T1 sequence (looked up): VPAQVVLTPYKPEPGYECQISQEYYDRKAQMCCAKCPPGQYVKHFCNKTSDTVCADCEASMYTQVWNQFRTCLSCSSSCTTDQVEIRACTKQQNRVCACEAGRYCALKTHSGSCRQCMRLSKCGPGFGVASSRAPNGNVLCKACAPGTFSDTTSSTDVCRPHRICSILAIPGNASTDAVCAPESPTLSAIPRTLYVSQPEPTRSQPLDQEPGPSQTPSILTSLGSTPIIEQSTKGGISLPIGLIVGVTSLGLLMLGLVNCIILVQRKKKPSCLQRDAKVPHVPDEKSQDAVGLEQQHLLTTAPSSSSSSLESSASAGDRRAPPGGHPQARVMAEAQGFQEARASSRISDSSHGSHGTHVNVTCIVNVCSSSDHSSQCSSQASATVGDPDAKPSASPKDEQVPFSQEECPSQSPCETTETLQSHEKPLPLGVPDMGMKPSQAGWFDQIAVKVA
Kind of experiment: FACS, transfected HEK293 cells. (In general: In flow cytometry, cells or beads pass a laser one at a time.)

Experiment [2] concerns the target T2, recombinant human TNFR2-Fc protein (Sino Biological) (human, UniProt P20333 23-257, limits assumed).
T2 construct: bought; also called human TNFR2 protein; not shown: Fc part of the bought fusion protein; not described
T2 sequence (looked up): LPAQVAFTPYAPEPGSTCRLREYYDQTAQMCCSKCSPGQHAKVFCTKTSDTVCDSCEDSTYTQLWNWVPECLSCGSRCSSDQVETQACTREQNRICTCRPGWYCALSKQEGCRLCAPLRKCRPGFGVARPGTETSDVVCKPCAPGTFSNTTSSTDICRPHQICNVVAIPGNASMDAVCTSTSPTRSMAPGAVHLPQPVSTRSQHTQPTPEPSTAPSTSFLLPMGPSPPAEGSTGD
Kind of experiment: ELISA, coated TNFR2-Fc. The procedure: (§1) 96-well plates (Lumitrac 600 LIA plate, Greiner) were coated overnight at 4° C. with recombinant human or mouse TNFR2-Fc protein (Sino Biological) at 1 pmol/well. After washing, titrated doses of anti-TNFR2 mAbs from 20 μg/ml to 0.1 ng/ml (133 nM to 1 pM) were allowed to bind for 1 hour. Plates were then washed again, and bound antibodies were detected with an anti-human-F(ab)-HRP secondary antibody (Jackson ImmunoResearch) diluted in 50 ng/ml. Super Signal ELISA Pico (Thermo Scientific) was used as substrate and the plates were analyzed using Tecan Ultra Microplate reader.
(An ELISA detects its analyte on a solid surface through an enzyme-linked reagent.)

Experiment [3] concerns the target T3, hTNFRII (Sinobioologicals Cat nr10414-H08H) (human, UniProt P20333 23-257).
T3 construct: bought; also called immobilized TNFR2
T3 sequence (looked up): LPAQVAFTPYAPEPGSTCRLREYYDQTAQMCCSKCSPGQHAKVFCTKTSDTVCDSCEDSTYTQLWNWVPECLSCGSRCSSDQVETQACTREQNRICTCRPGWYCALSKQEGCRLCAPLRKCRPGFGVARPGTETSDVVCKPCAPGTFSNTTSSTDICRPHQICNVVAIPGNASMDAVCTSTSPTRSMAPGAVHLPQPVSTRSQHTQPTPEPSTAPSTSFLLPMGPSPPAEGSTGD
Nature of the experiment: blocking ELISA, coated hTNFRII, competitor hTNF-α-bio 5 nM. On the procedure:
(§2) 96-well plates were coated with hTNFRII (Sinobioologicals Cat nr10414-H08H) or mTNFRII (Sinobioologicals Cat No. 50128 M08H) at 2.5 pmol/well in ELISA coating buffer (0.1 M sodium carbonate pH 9.5) and incubated overnight at 4° C. After washing in ELISA wash buffer (PBS with 0.05% Tween20), the plates were incubated under slow agitation for 1 h in room temperature with n-CoDeR® mAbs at 10 μg/ml (one-dose ELISA) or 33 nM and subsequent 1:2 dilutions (titration ELISA) in block buffer containing 0.45% fish gelatin. […] Thereafter, plates were washed. For the human ELISAs, Streptavidin-HRP (Jackson Cat No. 016-030-084) diluted 1:2000 in block buffer were added and again incubated for 1 h at room temperature followed by washes first in ELISA buffer and then in Tris buffer (pH 9.8). The substrate (Super Signal ELISA Pico from Thermo Scientific Cat. No. 37069) were thereafter diluted according to the manufacturers instruction, added to the wells and incubated in darkness for 10 min before reading in a Tecan Ultra. […] After washing, anti-Rabbit-HRP diluted 1:10 000 in block buffer was added and again incubated for 1 h at room temperature. Substrate adding and reading were performed as above.

In experiment [4] the target is T4, wild type, full length human TNFR2 (on cells) (human, UniProt P20333 23-461).
T4 construct: whole, on cells; also called hTNFR2; TNFRII
T4 sequence (looked up): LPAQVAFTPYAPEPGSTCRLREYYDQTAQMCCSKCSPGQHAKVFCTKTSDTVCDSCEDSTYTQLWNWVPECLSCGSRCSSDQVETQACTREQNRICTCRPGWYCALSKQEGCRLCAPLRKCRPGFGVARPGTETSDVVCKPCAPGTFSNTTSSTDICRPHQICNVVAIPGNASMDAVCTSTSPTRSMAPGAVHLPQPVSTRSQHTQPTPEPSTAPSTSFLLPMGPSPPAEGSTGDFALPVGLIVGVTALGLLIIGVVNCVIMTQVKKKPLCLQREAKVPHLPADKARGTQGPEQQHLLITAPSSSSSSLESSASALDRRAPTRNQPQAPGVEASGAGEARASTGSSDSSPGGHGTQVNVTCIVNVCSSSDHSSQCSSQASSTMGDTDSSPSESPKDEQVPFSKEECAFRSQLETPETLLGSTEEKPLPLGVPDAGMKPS
Kind of experiment: FACS, activated CD4+ T cells. The procedure:
(§3) The ability and affinity of TNFR2 n-CoDeR® antibodies to bind TNFR2 expressed on cells were obtained using in vitro activated CD4⁺ T cells. Human CD4⁺ T cells were stimulated with 50 ng/ml rhIL-2 (R&D systems) and Dynabeads® T-Activator CD3/CD28 for T-Cell Expansion and Activation (Gibco) 2-3 days at 37 degrees. […] Cells were then incubated with an APC conjugated a-human IgG secondary ab (Jackson) followed by analysis by flow cytometry (FACSVerse, BD).

For experiment [5], the target named is T5, mTNFRII (Sinobioologicals Cat No. 50128 M08H) (mouse, UniProt P25119 23-258, limits assumed).
T5 construct: bought
T5 sequence (looked up): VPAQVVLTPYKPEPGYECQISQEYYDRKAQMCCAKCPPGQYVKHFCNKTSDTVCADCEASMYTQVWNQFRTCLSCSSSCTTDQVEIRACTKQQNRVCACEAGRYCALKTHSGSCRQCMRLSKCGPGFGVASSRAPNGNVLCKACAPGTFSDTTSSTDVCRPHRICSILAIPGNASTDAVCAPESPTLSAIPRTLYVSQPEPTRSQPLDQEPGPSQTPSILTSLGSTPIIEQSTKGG
Nature of the experiment: ELISA, coated mTNFRII, mTNF-α 2 nM, rabbit anti-mTNF-α and anti-rabbit-HRP. On the procedure:
as §2

Experiment [6] has as its target T6, recombinant mouse TNFR2-Fc protein (Sino Biological) (mouse, UniProt P25119 23-258, limits assumed).
T6 construct: bought; also called mTNFR2 protein; mTNFR2; not shown: Fc part of the bought fusion protein; not described
T6 sequence (looked up): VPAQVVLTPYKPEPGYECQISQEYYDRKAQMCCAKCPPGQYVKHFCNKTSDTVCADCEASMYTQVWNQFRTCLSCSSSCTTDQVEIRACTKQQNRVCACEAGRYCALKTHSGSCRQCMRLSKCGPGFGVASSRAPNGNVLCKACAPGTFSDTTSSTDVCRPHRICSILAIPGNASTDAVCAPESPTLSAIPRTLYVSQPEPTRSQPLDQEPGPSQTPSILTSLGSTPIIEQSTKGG
Nature of the experiment: ELISA, coated TNFR2-Fc. The procedure: as §1

In experiment [7] the target is T1, wild type, full length murine TNFR2 (on …). Kind of experiment: FACS, activated mouse CD4+ T cells.
For experiment [8], the target named is T4, wild type, full length human TNFR2 (on …). Kind of experiment: FACS, activated CD4+ T cells. The procedure: as §3
This is another data set of the same source.

Consider eight molecules from patent US20220002426A1 (BIOINVENT INTERNATIONAL, published 2022).

By EC50 is commonly meant the concentration needed to bring the measured effect to its halfway point.

Read-outs that look alike come from different tables or passages of the source.

B1: 001-G10 (antibody, V domains shown)
VH: EVQLLESGGGLVQPGGSLRLSCAASGFTFSAYGMHWVRQAPGKGLEWVAVVSYDGREKHYADSVKGRFTISRDNSKNTLYLQMNSLRAEDTAVYYCARSDGGYDSDSGYYWGQGTLVTVSS
VL: QSVLTQPPSASGTPGQRVTISCSGSTSNIGSNFVYWYQQLPGTAPKLLIYDNNKRPSGVPDRFSGSKSGTSASLAISGLRSEDEADYYCSSYAYSDNILFGGGTKLTVLG
notes: IgG
Consider B1, for which the binding result in experiment [1] is “no binding”. Besides, the EC50 in experiment [2] is 0.29 nM; in experiment [3], 1.6 nM; in experiment [4] it was 3.3 nM.

B2: mTNF-α (Gibco Cat. No. PMC3014) (ligand, mouse, UniProt P06804 80-235, looked up)
chain: LRSSSQNSSDKPVAHVVANHQVEEQLEWLSQRANALLANGMDLKDNQLVVPADGLYLVYSQVLFKGQGCPDYVLLTHTVSRFAISYQEKVNLLSAVKSPCPKDTPEGAELKPWYEPIYLGGVFQLEKGDQLSAEVNLPKYLDFAESGQVYFGVIAL
As to B2, the binding result in experiment [5] is recorded as “binds”.

B3: 001-F02 (antibody, V domains shown)
VH: EVQLLESGGGLVQPGGSLRLSCAASGFTFSDYYMSWVRQAPGKGLEWVANINTDGSEKYYLDSVKGRFTISRDNSKNTLYLQMNSLRAEDTAVYYCAREEYGAFDIWGQGTLVTVSS
VL: QSVLTQPPSASGTPGQRVTISCSGSSSNIGSNTVNWYQQLPGTAPKLLIYDNNKRPSGVPDRFSGSKSGTSASLAISGLRSEDEADYYCQSFDRGLSGSIVFGGGTKLTVLG
notes: IgG; In the MDSC assay tested as hIgG1, hIgG2 and N297Q
As for B3, in experiment [1], the binding result is listed as “no binding”. Further, the values for the EC50 in experiment [2] and in experiment [4] were 0.31 nM and 0.79 nM, respectively.

B4: 005-B08 (antibody, V domains shown)
VH: EVQLLESGGGLVQPGGSLRLSCAASGFTFSDYYMSWIRQAPGKGLEWVAIISYDGGGKYFADPVKGRFTISRDNSKNTLYLQMNSLRAEDTAVYYCARYYGDGGFDPWGQGTLVTVSS
VL: not shown
notes: IgG
With B4, in experiment [1], the binding result is listed as “no binding”. In addition, the EC50 came to 0.17 nM in experiment [2], 0.3 nM in experiment [3] and 1.2 nM in experiment [4].

B5: 001-F06 (antibody, V domains shown)
VH: EVQLLESGGGLVQPGGSLRLSCAASGFTFSSYAMHWVRQAPGKGLEWVSAISGGATTTYYADSVKGRFTISRDNSKNTLYLQMNSLRAEDTAVYYCAKGGTGDPYYFDYWGQGTLVTVSS
VL: QSVLTQPPSASGTPGQRVTISCTGSSSNIGAGYDVHWYQQLPGTAPKLLIYRNNQRPSGVPDRFSGSKSGTSASLAISGLRSEDEADYYCAARDDGLSGPVFGGGTKLTVLG
notes: IgG
Take B5: the binding result in experiment [1] was “no binding”. Further, the results for the EC50 in experiment [2] and in experiment [4] were 0.15 nM and 2.5 nM, respectively.

B6: 005-A05 (antibody, V domains shown)
VH: EVQLLESGGGLVQPGGSLRLSCAASGFTFSSYAMSWVRQAPGKGLEWVSTIIGSGANTWYADSVKGRFTISRDNSKNTLYLQMNSLRAEDTAVYYCARHEGYYYYGMDVWGQGTLVTVSS
VL: QSVLTQPPSASGTPGQRVTISCTGSSSNIGAGYVVHWYQQLPGTAPKLLIYGNSNRPSGVPDRFSGSKSGTSASLAISGLRSEDEADYYCAAWDDSLNGRVFGGGTKLTVLG
notes: also called 5-A05 (mouse)
For the molecule B6, the results for the EC50 in experiment [6] and in experiment [7] were 1.4 nM and 0.11 nM, respectively.

B7: 001-C03 (antibody, V domains shown)
VH: EVQLLESGGGLVQPGGSLRLSCAASGFTFSNAWMSWVRQAPGKGLEWVSAISVSGINTYYADSVKGRFTISRDNSKNTLYLQMNSLRAEDTAVYYCARDTGSLGVDYWGQGTLVTVSS
VL: QSVLTQPPSASGTPGQRVTISCSGSSSNIGSNTVNWYQQLPGTAPKLLIYRNNQRPSGVPDRFSGSKSGTSASLAISGLRSEDEADYYCQSYDSSLSISVFGGGTKLTVLG
notes: IgG; also called 1-003; 001-0O3
On to B7, for which the EC50 in experiment [8] is 52.7 nM; in experiment [2], 0.75 nM; in experiment [4], 53 nM.

B8: 004-H02 (antibody, V domains shown)
VH: EVQLLESGGGLVQPGGSLRLSCAASGFTFDDYGMSWVRQAPGKGLEWVSTIYSGDNAYYGASVRGRFTISRDNSKNTLYLQMNSLRAEDTAVYYCARVYSSSWRKRAFDIWGQGTLVTVSS
VL: not shown
notes: IgG
Turning to B8, the EC50 in experiment [8] is 0.6 nM; in experiment [2], 0.2 nM; in experiment [3], 0.4 nM; in experiment [4] it was 0.59 nM.
